Measured values: patent US10508139B2, “Compound, use, anti-tumor pharmaceutical composition, gene construct for polypeptide expression, process for the production, process for the evaluation of tumor cells, method of sensitization of tumor cells to chemotherapeutic” (União Brasileira de Educaçâo e Assistência, mantendedora da …, priority 2012, dated 2019)

What was measured:
B16F10 cells [1] = assay: Tumor growth of B16F10 cells transiently transfected with murine HspBP1 or HspBP1 (1-136); assay type: in vivo, mice; settings: subcutaneous, monitored for 20 days
Procedure: Working with the possibility that human HspBP1 protein is recognized by the mouse immune system and that this is the reason for the tumor growth reduction, we decided to repeat the experiments using murine HspBP1. The B16F10 cells were transiently transfected with plasmid containing the sequence encoding the murine HspBP1 or […] as a control, and these cells were injected subcutaneously in the mouse thigh. Tumor growth was monitored for 20 days by measuring the volume of the thigh using a digital caliper.
B16F10 cells (5×10^5) were transiently transfected with pcDNA4/TO plasmid alone or containing the sequence encoding HspBP1 and HspBP1 (1-136) protein and, after 24 h, were injected subcutaneously into mice. A)—Quantification of tumor growth inhibition by HspBP1 after 20 days of tumor growth (Mann-Whitney test, p<0.05). B)—Tumor-bearing mice were photographed after 20 days of tumor growth. C)—Western blot analysis showing in vitro HspBP1 and truncated HspBP1 (1-136) expression on transfected cells.

B16F10 cells [2] = assay: Tetracycline-induced human HspBP1 overexpression in B16F10 tumors in mice; assay type: in vivo
From the text: As part of the experimental strategy, a gene construct was designed and implemented for the Hsp70 binder expression, said construct being particularly useful for gene therapy for the treatment of mammalian tumors. Said gene construct comprises: • a sequence encoding a Hsp70 binding polypeptide; • a promoter sequence operatively linked to said encoding sequence; • said promoter and coding sequences being present on a vector or functional plasmid for expression of said polypeptide in prokaryotic or eukaryotic cells. In this context, a system was developed in which HspBP1 expression was regulated by the presence of tetracycline. B16F10 cells were stably transfected with pcDNA6/TR plasmid, the transfected clones were selected using antibiotic and then the cells were transfected with a plasmid containing the sequence encoding human HspBP1, or empty vector as a control. The HspBP1 increased expression was verified by adding tetracycline to the culture medium. […]
The B16F10 cells were stably transfected with pcDNA6/TR and pcDNA4/TO plasmids with or without the human HspBP1 sequence. […] Quantification of tumor growth inhibition by HspBP1 (Mann-Whitney test, /d/p<0.05). Tumor volume (V) was calculated using V=d2×D×0.5, where d=smaller diameter and D=larger diameter.

[3] = molecular target: T1, Hsp70 on the surface of the cells (Mus musculus, UniProt Q61696); assay: Binding to B16F10 cells analyzed by flow cytometry; design: species or system murine; settings: B16F10 cells labeled 2 hours on ice
T1 construct: endogenous in cells; host or cells: B16F10 murine melanoma cells
From the text: Studies have shown that Hsp70 and HspBP1 can be secreted by tumor cells (Evdonin et al., 2009) and it is well established that Hsp70 is present in human serum (Pockley et al., 1998). Our laboratory has shown that breast cancer patients had twice the HspBP1 level in their serum compared to tumor-free individuals. Furthermore, breast tumors contained HspBP1 (and Hsp70) levels that were 4 times higher than the normal adjacent tissue (Souza et al., 2009).
Fc receptors were blocked using […], then the cells were labeled for 2 hours on ice with HspBP1 (FL) or HspBP1 (1-136). Cells were acquired on FACS Canto II cytometer (BD bioscience), and the data were analyzed using the FlowJo software (TreeStar).

activated caspase 3 = assay: Ex vivo activated caspase 3 Western blot of treated tumors; assay type: in vivo, mice; settings: tumor removed 24 hours after treatment, OVA control
Procedure: We performed ex vivo tests to verify that HspBP1 treatment could activate caspase 3 in melanoma. 8×10^5 cells/animals were injected and after 3 days they were treated with HspBP1 FL, HspBP1 (1-136) or OVA. After 24 hours, the tumor was removed and analyzed for activated caspase 3 by Western blot (FIG. 5).
The 17 kDa band represents the marking of activated caspase 3.

B16F10 cells [4] = assay: Survival of transfected B16F10 cells after heat shock; assay type: cell-based, murine; settings: overexpression in B16F10 cells, heat shock 42° C. for 1 h
Procedure: When Hsp70 is silenced in B16F10 cells using siRNA and when we submit the cells to heat shock, there is a reduction in the number of viable cells in vitro (FIG. 3).
B—Western blot analysis of Hsp70 and actin expression in B16F10 cells, after silencing Hsp70 with siRNA. Cells were treated with control siRNA (lane 1) or Hsp70 siRNA (lane 2) and subsequently heat shocked at 42° C. for 2 hours, followed by a recovery of 37° C. for 4 h. C—Survival of B16F10 cells transiently transfected with pcDNA4/TO plasmid containing the murine HspBP1 sequence or pcDNA4/TO plasmid having murine HspBP1 (1-136) sequence; with or without heat shock at 42° C. for 1 h.

tumor = assay: Intravenous injections in tumor bearing mice; assay type: in vivo; settings: circulating levels increased through intravenous injections
From the text: The invention therefore additionally provides a new in vivo experimental model for the development of new anti-tumor agents.

B16F10 cells [5] = assay: Growth of HspBP1-overexpressing B16F10 tumors in WT and RAG-/- mice; assay type: in vivo; settings: for tumor size vs vector control: 25 days of tumor growth
Procedure: One possibility is that the host immune system plays a role in in vivo tumor growth inhibition mediated by HspBP1. A comparison between wild WT mice (C57BL6/c) and immunodeficient mice (RAG−/−) was used to further explore the involvement of the immune system in tumor regression mediated by HspBP1 overexpression in B16F10 cells (FIG. 10).
Tumor volume (mm3) was measured after 25 days of tumor growth (Mann-Whitney test, p <0.05).

B16F10 cells [6] = assay: Sensitization of B16F10 cells to hydrogen peroxide-induced death (MTT, annexin/propidium iodide); assay type: cell-based, murine; settings: HspBP1 for 2 h, then hydrogen peroxide; MTT after 24 h or annexin/propidium iodide after 12 h
Procedure: Since Hsp70 protects against death induced by oxidative stress—such as, for example, that induced in the treatment with hydrogen peroxide, we hypothesized that HspBP1 will sensitize tumors to death by oxidative stress, thereby enabling a tumor cell sensitization method to chemotherapeutic agents. HspBP1 was added at different concentrations with B16F10 cells cultured for 2h and then hydrogen peroxide was added. After 24 h and 12 h viability was assessed using MTT or by annexin and propidium iodide labeling to assess apoptotic cells. […] Viability was assessed using MTT after 24 hours (A) or by annexin and propidium iodide labeling after 12 h (B).

Hsp70 ATPase activity = Hsp70 ATPase activity (Homo sapiens, UniProt P0DMV8); settings: according to Raynes et al. (2003); cited from earlier work
draining lymph nodes = assay: Draining lymph node analysis of tumors over-expressing HspBP1 (flow cytometry); assay type: in vivo, mice; settings: 25 days of tumor growth
Procedure: Furthermore, activation of dendritic cells and the number of CD4 and CD8 T cells in draining lymph nodes of tumor-bearing mice transiently over-expressing HspBP1 was evaluated. […] A—Number of CD4+ or CD8+ T cells in draining lymph nodes. B—Number of CD11c+CD86+MHCII+ cells. C—Dot plot graph showing the frequency of CD11c+, CD86 +MHC-II+ dendritic cells.

B16F10 cells [7] = assay: Single HspBP1 treatment of B16F10 cells in culture; assay type: cell-based, murine; settings: no added stressor
B16F10 cells [8] = assay: Intratumoral injection of recombinant protein in melanoma-bearing mice; assay type: in vivo; settings: 40 ug intratumorally on days 3 and 6, monitored for 16 days, BSA control
Procedure: The recombinant form of the non-natural 1-136 peptide was produced. Then melanoma-bearing mice were treated with whole protein (FL) or only with said peptide. […] 3 and 6 days later, 40 ug HspBP1, BSA or truncated HspBP1 were intratumorally injected in 100 uL PBS. Tumor growth was monitored for 16 days. Tumor sizes were measured using a caliper. Tumor volume (V) (mm3) was calculated using V=d2×D×0.5, wherein d=smaller diameter and D=larger diameter.

B16F10 cells [9] = assay: Chemo-sensitization of B16F10 cells to cisplatin (MTT); assay type: cell-based, murine; settings: HspBP1 for 2 h, then cisplatin 160 ug/ml, 14 h
Procedure: (§1) It was also assessed whether HspBP1 may enhance the effect of chemotherapeutic agents already used in clinical practice. The B16F10 cells were plated at a concentration of 4×10^3 cells per well in a 96 well plate in 200 ul 10% DMEM medium. After 24 h, HspBP1 was added at different concentrations in AIM-V medium, and cells were incubated for 2 h; then cisplatin was added at a concentration of 160 ug/ml. After 14 h cell viability was assessed using MTT.
as §1, with “The” for “It was also assessed whether HspBP1 may enhance the effect of chemotherapeutic agents already used in clinical practice. The”, “14 h,” for “14 h”

GL, glioma cell line = assay: Apoptosis in GL glioma cell line (Annexin V/iodide flow cytometry); assay type: cell-based; settings: 10 or 20 ug for 24 hours, albumin control
Procedure: In vitro assays were performed to verify whether HspBP1 could induce cell death in GL, glioma cell line. 5×10^5 cells were seeded per well in a 24 well plate. Then, cells were incubated with 10 or 20 ug HspBP1 or albumin for 24 hours in DMEM containing 1% fetal bovine serum. After 24 hours, the samples were analyzed by flow cytometry using the Annexin V/iodide kit (BD).

T1 sequence (Q61696 whole entry): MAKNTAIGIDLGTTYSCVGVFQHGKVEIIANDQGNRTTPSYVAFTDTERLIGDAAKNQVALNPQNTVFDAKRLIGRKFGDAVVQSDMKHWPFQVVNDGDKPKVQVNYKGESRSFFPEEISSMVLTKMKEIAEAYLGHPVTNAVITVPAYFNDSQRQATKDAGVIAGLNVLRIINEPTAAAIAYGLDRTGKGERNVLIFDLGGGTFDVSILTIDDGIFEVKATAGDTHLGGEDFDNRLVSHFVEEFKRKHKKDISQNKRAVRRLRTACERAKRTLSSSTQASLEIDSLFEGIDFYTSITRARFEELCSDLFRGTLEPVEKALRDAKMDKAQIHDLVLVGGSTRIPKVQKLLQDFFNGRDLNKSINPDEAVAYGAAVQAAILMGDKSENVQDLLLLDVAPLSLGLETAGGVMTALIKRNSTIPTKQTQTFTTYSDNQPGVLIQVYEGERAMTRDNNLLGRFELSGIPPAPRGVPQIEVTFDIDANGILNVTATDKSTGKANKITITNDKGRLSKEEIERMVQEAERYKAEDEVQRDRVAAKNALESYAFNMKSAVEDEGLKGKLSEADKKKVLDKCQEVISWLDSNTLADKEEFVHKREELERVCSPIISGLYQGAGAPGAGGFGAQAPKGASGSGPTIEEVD
Hsp70 ATPase activity, sequence (P0DMV8 whole entry): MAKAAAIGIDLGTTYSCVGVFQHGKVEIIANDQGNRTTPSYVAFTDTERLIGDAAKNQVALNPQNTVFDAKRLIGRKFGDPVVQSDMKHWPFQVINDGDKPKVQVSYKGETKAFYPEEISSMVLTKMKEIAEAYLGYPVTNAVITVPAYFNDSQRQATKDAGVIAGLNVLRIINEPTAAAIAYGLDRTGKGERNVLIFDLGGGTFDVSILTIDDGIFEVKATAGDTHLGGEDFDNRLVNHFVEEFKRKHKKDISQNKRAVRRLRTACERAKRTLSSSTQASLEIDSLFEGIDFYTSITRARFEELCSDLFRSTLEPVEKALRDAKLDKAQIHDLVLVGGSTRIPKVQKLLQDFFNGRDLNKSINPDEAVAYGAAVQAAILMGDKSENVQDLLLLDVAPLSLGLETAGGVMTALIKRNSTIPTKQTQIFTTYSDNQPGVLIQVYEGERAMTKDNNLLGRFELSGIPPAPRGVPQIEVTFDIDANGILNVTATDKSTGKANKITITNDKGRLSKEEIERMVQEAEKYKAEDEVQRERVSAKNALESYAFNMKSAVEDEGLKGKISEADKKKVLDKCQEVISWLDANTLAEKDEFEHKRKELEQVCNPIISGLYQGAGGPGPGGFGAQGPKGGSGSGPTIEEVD

murine HspBP1: murine HspBP1 expressed in B16F10 cells from pcDNA4/TO plasmid; 94% identical to human form
tumor growth (B16F10 cells [1]): inhibits tumor growth

B1: human HspBP1: human HspBP1 expressed in B16F10 cells from a tetracycline-regulated plasmid (protein, UniProt Q9NZL4 1-359, looked up)
Hsp70-binding protein 1: MSDEGSRGSRLPLALPPASQGCSSGGGGGGSSAGGSGNSRPPRNLQGLLQMAITAGSEEPDPPPEPMSEERRQWLQEAMSAAFRGQREEVEQMKSCLRVLSQPMPPTAGEAEQAADQQEREGALELLADLCENMDNAADFCQLSGMHLLVGRYLEAGAAGLRWRAAQLIGTCSQNVAAIQEQVLGLGALRKLLRLLDRDACDTVRVKALFAISCLVREQEAGLLQFLRLDGFSVLMRAMQQQVQKLKVKSAFLLQNLLVGHPEHKGTLCSMGMVQQLVALVRTEHSPFHEHVLGALCSLVTDFPQGVRECREPELGLEELLRHRCQLLQQHEEYQEELEFCEKLLQTCFSSPADDSMDR
average tumor volume (B16F10 cells [2]; B16F10 stably transfected, injected subcutaneously into thigh of mice, tetracycline in drinking water, control tumors 46.9 mm^3): 2.07 mm^3 | tumor growth (B16F10 cells [2]; induced human HspBP1 overexpression vs mice without tetracycline): clearly reduced

B2: truncated HspBP1: non-natural peptide corresponding to amino acids 1-136 of HspBP1 (protein)
chain: MADKGSGGSRLPLALPPASQGCSSGGSGSSAGGSGNPRPPRNLQGLLQMAITAGSQEPDPPPEPMSEERRQWLQEAMSAAFRGQREEVEQMKNCLRVLSQATPAMAGEAELATDQQEREGALELLADLCENMDNAA
binding to the extracellular surface of tumor cells [3]: can bind to the extracellular surface of tumor cells | apoptosis in vivo (activated caspase 3) (activated caspase 3): inhibits tumor growth by inducing apoptosis in vivo | cell survival after heat shock (B16F10 cells [4]): no changes occur in vitro | tumor growth (B16F10 cells [1]): also inhibits tumor growth

B3: HspBP1: Hsp70 binding co-chaperone protein, SEQ ID No: 1; species of the protein not always stated (protein, listed as Mus musculus)
chain: B2 chain
binding to the extracellular surface of tumor cells [3]: can bind to the extracellular surface of tumor cells | cell survival after heat shock (B16F10 cells [4]): no changes occur in vitro | tumor growth (tumor): tumor growth was reduced | tumor size vs vector control (B16F10 cells [5]; RAG -/- mice): tendency to be smaller than tumors transfected with vector alone, although the difference was not significant | tumor size vs vector control (B16F10 cells [5]; WT mice (C57BL6/c)): significantly smaller than tumors transfected only with the vector as a control | tumor size, WT vs RAG -/- mice (B16F10 cells [5]; tumors expressing HspBP1): significantly smaller in WT than in RAG −/− mice | death induced by oxidative stress (B16F10 cells [6]): enhances death induced by oxidative stress | HspBP1/Hsp70 molar ratio resulting in 50% inhibition of Hsp70 ATPase activity (Hsp70 ATPase activity): 4.0 | T cell frequency in the draining lymph nodes (draining lymph nodes; CD4 and CD8 T cells): no difference in T cell frequency | activation of dendritic cells in the lymph node (draining lymph nodes; CD11c+CD86+MHCII+ cells): trend in the activation of dendritic cells | anti-tumor effect in culture (B16F10 cells [7]): lack of an anti-tumor effect | tumor growth (B16F10 cells [8]): Reduces Tumor Growth | effect on cisplatin-induced death (cell viability, MTT) (B16F10 cells [9]): enhances the effect of cisplatin death | frequency of apoptotic cells (GL, glioma cell line): increase in the frequency of apoptotic cells
